How the values were obtained:
[1] = biological target: T1, human CD38 on cells (MOLP-8, RPMI-8226, Daudi cell lines, patient cells and tissues) (human, UniProt P28907 1-300); assay: flow cytometry titration on MOLP-8 cells, 4 C, nonlinear fit; 95% confidence interval in parentheses
T1 construct: Endogenous CD38 of human cell lines and patient samples; also called huCD38

[2] = biological target: T1, human CD38 on cells (MOLP-8, RPMI-8226, …); assay: cell-based or functional assay
[3] = biological target: T2, soluble human CD38 ectodomain (ECD), R&D Systems Cat #2404-AC (human, UniProt P28907 43-300); assay: SPR Biacore A100, 22 C, mAb captured by anti-human IgG, soluble human CD38 ECD as analyte, 1:1 fit
T2 construct: Bought ectodomain; also called HuCD38; human recombinant CD38

cynomolgus CD38 = biological target: T3, cynomolgus CD38 (cynomolgus (Macaca fascicularis), UniProt Q5VAN0 1-301, limits assumed); assay: not described at this place (FACS screen on CHO cells expressing cynomolgus CD38 is described in Example 3)
T3 construct: also called cyCD38; cyno CD38
T3 sequence (Q5VAN0 whole entry): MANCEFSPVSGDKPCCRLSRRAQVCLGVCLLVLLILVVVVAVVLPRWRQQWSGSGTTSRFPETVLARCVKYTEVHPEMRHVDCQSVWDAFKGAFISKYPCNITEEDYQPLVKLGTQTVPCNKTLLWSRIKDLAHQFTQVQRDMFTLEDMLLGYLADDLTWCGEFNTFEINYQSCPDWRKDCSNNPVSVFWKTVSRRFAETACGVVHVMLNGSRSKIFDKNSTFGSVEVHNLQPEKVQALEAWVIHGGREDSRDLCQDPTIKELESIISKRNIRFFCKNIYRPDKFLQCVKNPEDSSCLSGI

[4] = biological target: T1, human CD38 on cells (MOLP-8, RPMI-8226, …); assay: flow cytometry (FACS KD) on RPMI-8226 cells

Kd [1]	ADCC EC50 nM (DAUDI) [2]	ADCC EC50 nM (MOLP-8) [2]	ADCC EC50 nM (RPMI-8226) [2]	Apoptosis EC50 nM (DAUDI) [2]	CDC EC50 nM (MOLP-8) [2]	Kd [3]	koff [3]	kon [3]	binding result (cynomolgus CD38)	Kd [4]	Binder
1 nM	0.24 nM	0.874 nM	2.98 nM	0.4 nM	1.99 nM	1400 nM	0.171 s⁻¹	122000 M⁻¹ s⁻¹			Ab110 (antibody, human IgG1, lambda, V domains shown) VH: EVQLLESGGGLVQPGGSLRLSCAASGFTFSSYGMHWVRQAPGKGLEWVSIIYSGGSTYYADSVKGRFTISRDNSKNTLYLQMNSLRAEDTAVYYCARRATWGGATHDYWGQGTLVTVSS VL: not shown
1.2 nM	0.03 nM	0.047 nM	0.46 nM	0.048 nM	1.1 nM	5.5 nM			binds	0.508 nM	Ab79 (antibody, human IgG1, lambda, V domains shown, also called TSF79) VH: EVQLLESGGGLVQPGGSLRLSCAASGFTFDDYGMSWVRQAPGKGLEWVSDISWNGGKTHYVDSVKGQFTISRDNSKNTLYLQMNSLRAEDTAVYYCARGSLFHDSSGFYFGHWGQGTLVTVSS VL: QSVLTQPPSASGTPGQRVTISCSGSSSNIGDNYVSWYQQLPGTAPKLLIYRDSQRPSGVPDRFSGSKSGTSASLAISGLRSEDEADYYCQSYDSSLSGSVFGGGTKLTVLG
0.6 nM	0.14 nM	0.193 nM	2.35 nM	0.35 nM	0.66 nM	126 nM	0.00182 s⁻¹	14400 M⁻¹ s⁻¹			Ab72 (antibody, human IgG1, lambda, V domains shown) VH: EVQLLESGGGLVQPGGSLRLSCAASGFTFSSYGMNWVRQAPGKGLEWVSGISGSGGSTYYADSVKGRFTISRDNSKNTLYLQMNSLRAEDTAVYYCAKDSNYDFWSGYYYGMDVWGQGTLVTVSS VL: QSVLTQPPSASGTPGQRVTISCSGSSSNIGSKTVSWYQQLPGTAPKLLIYDNNKRPSGVPDRFSGSKSGTSASLAISGLRSEDEADYYCSSYAARSTNIIFGGGTKLTVLG

Continued, binder first:

Binder	Kd [1]	ADCC EC50 nM (DAUDI) [2]	ADCC EC50 nM (MOLP-8) [2]	ADCC EC50 nM (RPMI-8226) [2]	Apoptosis EC50 nM (DAUDI) [2]	CDC EC50 nM (MOLP-8) [2]	Kd [3]	koff [3]	kon [3]	binding result (cynomolgus CD38)	Kd [4]
Ab43 (antibody, human IgG1, lambda, V domains shown) VH: EVQLLESGGGLVQPGGSLRLSCAASGFTFSSYGMHWVRQAPGKGLEWVSRINSDGSSTSYADSMKGQFTISRDNSKNTLYLQMNSLRAEDTAVYYCARGGYYYYAMDVWGQGTLVTVSS VL: not shown	1.1 nM	0.12 nM	0.027 nM	3.84 nM	1.56 nM	2.2 nM	537 nM	0.146 s⁻¹	272000 M⁻¹ s⁻¹		
Ab19 (antibody, human IgG1, lambda, V domains shown) VH: EVQLLESGGGLVQPGGSLRLSCAASGFTFNNYDMTWVRQAPGKGLEWVAVISYDGSDKDYADSVKGRFTISRDNSKNTLYLQMNSLRAEDTAVYYCARVYYYGFSGPSMDVWGQGTLVTVSS VL: QSVLTQPPSASGTPGQRVTISCSGSNSNIGSNTVNWYQQLPGTAPKLLIYSDSNRPSGVPDRFSGSKSGTSASLAISGLRSEDEADYYCQSYDSSLSGSRVFGGGTKLTVLG	0.4 nM	0.08 nM	0.038 nM	0.46 nM	0.032 nM	0.98 nM	5.3 nM			binds	

— patent US20180016349A1 (Takeda / Millennium, published 2018)
